Here are results for three substances from paper PMC5973699.

The target of assay [1] is MabSelect SuRe resin ligand (engineered Protein A; alkaline resistant protein A domain). As to the kind of experiment: capture on affinity resin.
The target in assay [2] is GammaBind Plus resin ligand (affinity improved protein G). As to the kind of experiment: capture on affinity resin.

On to mouse IgG1 (antibody), for which the binding capacity (µg mouse IgG1 per µL resin) in assay [1] worked out at 25.

As to rat IgG2a (antibody), the Binding capacity (Batch Mode) (µg rat IgG2a /µL resin) in assay [2] amounted to 15.

Consider human IgG1 (pertuzumab) (antibody), for which, in assay [1], the binding capacity, tip column, 2 pipetting cycles came to 37 µg; the binding capacity, tip column, 4 pipetting cycles came out at 46 µg; the binding capacity, tip column, 6 pipetting cycles (µg human IgG1 per µL of resin) is 52; the binding capacity, tip column, 8 pipetting cycles (µg human IgG1 per µL of resin) worked out at 54. Besides, in assay [1], the binding capacity, tip column, 9 pipetting cycles (µg human IgG1 per µL of resin) amounted to 55 and the static binding capacity (batch mode) (µg human IgG1 per µL of resin) was 62.
